According to US20170355734A1 (INSERM INSTITUT NATIONAL DE LA SANT ET DE LA RECHERCHE M …, published 2017):
Read-outs that look alike come from different tables or passages of the source. Each block holds one molecule with its values, some of them ahead of it. Where no end group is shown, it is not given here. [ ]: non-standard residue; d: D form. The star is where a group is joined. Propanoyl(3-C8F17) = O=C(CCC(F)(F)C(F)(F)C(F)(F)C(F)(F)C(F)(F)C(F)(F)C(F)(F)C(F)(F)F)*; Phe(4-Br) = N[C@@H](Cc1ccc(Br)cc1)C(=O)O; fluorocarbon group = not defined here; Palmitoyl = CCCCCCCCCCCCCCCC(=O)*; acyl group = not defined here; Nle = CCCC[C@H](N)C(=O)O; Aib = CC(C)(N)C(=O)O

Legend:
[1] = biological target: T1, wild-type rat apelin receptor-EGFP (rat, UniProt Q9JHG3 1-377, EGFP is fused at the C-terminal (intracellular) end of the receptor. It is not included in the letters.); test: cell-based or functional assay
T1 sequence: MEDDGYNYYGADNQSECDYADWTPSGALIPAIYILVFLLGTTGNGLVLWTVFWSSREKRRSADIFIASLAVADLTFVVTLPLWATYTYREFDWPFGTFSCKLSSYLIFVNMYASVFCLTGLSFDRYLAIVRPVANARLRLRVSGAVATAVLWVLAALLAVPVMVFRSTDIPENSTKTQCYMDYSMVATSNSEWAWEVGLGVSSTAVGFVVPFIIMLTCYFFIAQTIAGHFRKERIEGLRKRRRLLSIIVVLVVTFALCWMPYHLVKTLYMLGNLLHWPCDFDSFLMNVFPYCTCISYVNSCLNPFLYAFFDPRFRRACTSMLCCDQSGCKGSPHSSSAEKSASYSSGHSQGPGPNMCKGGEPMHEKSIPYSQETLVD

[2] = biological target: T1, wild-type rat apelin receptor-EGFP; test: competitive radioligand binding vs [125I]-pE13F, membranes of CHO cells expressing rat apelin receptor-EGFP
[3] = biological target: T1, wild-type rat apelin receptor-EGFP; test: cell-based or functional assay; remark: listed apart in the source
[4] = biological target: T1, wild-type rat apelin receptor-EGFP; test: cell-based or functional assay; remark: listed apart in the source
[5] = biological target: T1, wild-type rat apelin receptor-EGFP; test: competitive radioligand binding vs [125I]-pE13F, rat apelin receptor-EGFP in CHO membranes
[6] = biological target: T1, wild-type rat apelin receptor-EGFP; test: competitive radioligand binding vs [125I]-pE13F, membranes of CHO cells expressing rat apelin receptor-EGFP
Protocol: (§1) Crude membrane preparation from CHO stably expressing the wild-type rat apelin receptor-EGFP, were prepared as previously described (39). […] The reaction was stopped by adding ice-cold binding buffer and filtered through glass microfiber filters (Whatman GF/C filters). Radioactivity was counted in Wizard 1470 Wallac gamma counter (Perkin Elmer, Turku, Finland).

[7] = biological target: T1, wild-type rat apelin receptor-EGFP; test: cell-based or functional assay; remark: listed apart in the source
[8] = biological target: T1, wild-type rat apelin receptor-EGFP; test: competitive radioligand binding vs [125I]-pE13F, membranes of CHO cells expressing rat apelin receptor-EGFP; remark: listed apart in the source
Protocol: as §1

[9] = biological target: T1, wild-type rat apelin receptor-EGFP; test: cell-based or functional assay; remark: listed apart in the source
[10] = biological target: T1, wild-type rat apelin receptor-EGFP; test: cell-based or functional assay; remark: listed apart in the source
[11] = biological target: T1, wild-type rat apelin receptor-EGFP; test: cell-based or functional assay; remark: listed apart in the source
[12] = biological target: T1, wild-type rat apelin receptor-EGFP; test: competitive radioligand binding vs [125I]-pE13F, membranes of CHO cells expressing rat apelin receptor-EGFP; remark: listed apart in the source
Protocol: as §1

[13] = biological target: T1, wild-type rat apelin receptor-EGFP; test: radioligand binding on membrane preparation from CHO cells stably expressing the rat apelin receptor-EGFP
[14] = biological target: T1, wild-type rat apelin receptor-EGFP; test: cell-based or functional assay; remark: listed apart in the source
[15] = biological target: T1, wild-type rat apelin receptor-EGFP; test: competitive radioligand binding vs [125I]-pE13F, membranes of CHO cells expressing rat apelin receptor-EGFP; remark: listed apart in the source
[16] = biological target: T1, wild-type rat apelin receptor-EGFP; test: cell-based or functional assay; remark: listed apart in the source
[17] = biological target: T1, wild-type rat apelin receptor-EGFP; test: D-scanning; competitive radioligand binding vs [125I]-pE13F, rat apelin receptor-EGFP in CHO membranes

Sequence of AT1 receptor (P30556 whole entry): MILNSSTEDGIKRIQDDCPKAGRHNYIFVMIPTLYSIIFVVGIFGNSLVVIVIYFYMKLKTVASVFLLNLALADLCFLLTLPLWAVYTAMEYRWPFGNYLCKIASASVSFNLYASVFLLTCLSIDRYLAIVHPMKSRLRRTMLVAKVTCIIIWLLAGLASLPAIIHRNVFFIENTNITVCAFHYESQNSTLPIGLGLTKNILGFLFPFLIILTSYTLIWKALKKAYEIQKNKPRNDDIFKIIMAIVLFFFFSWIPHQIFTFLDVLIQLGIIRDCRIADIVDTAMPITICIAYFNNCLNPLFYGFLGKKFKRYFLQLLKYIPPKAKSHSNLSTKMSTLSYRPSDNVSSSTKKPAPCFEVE

Molecule: Ac-KFRR[dQ]RPR[dL]S[Aib]K[dA]P[Nle]P[Phe(4-Br)] [P95]
IC50 [2]: 0.03 nM | cAMP production IC50 [4]: 0.34 nM | factor of improved affinity as compared to K17F [5]: 10 fold

Molecule: H-KFRRQRPRLSHKGPMPF-OH [K17F (apelin-17)]
IC50 [6]: 0.29 nM | Ki [6]: 0.049 nM | IC50 cAMP inhibition [7]: 0.09 nM | Ki [8]: 0.26 nM | cAMP production IC50 [9]: 0.3 nM | ERK1/2 phosphorylation EC50 [10]: 4.08 nM | Inhibition of FSK-induced cAMP production IC50 [10]: 0.3 nM | Internalization EC50 [10]: 0.26 nM | ERK1/2 phosphorylation EC50 [11]: 4.08 nM | Internalization EC50 [11]: 0.26 nM | cAMP production IC50 [11]: 0.3 nM | Ki [12]: 0.06 nM

Molecule: Ac-RPRLSHKGPMPF [Ac-R12F]
Ki [5]: 1.4 nM | inhibition of forskolin-induced cAMP production IC50 [3]: 2.4 nM

Molecule: {fluorocarbon group}-KF[dR]R[dQ]RPR[dL]S[Aib]K[dA]P[Nle]P[Phe(4-Br)] (reading uncertain; also: fluorocarbon group on the NH2α of Lys 1) [FLUORO-P92]
Ki [13]: 0.31 nM

B1: P26 (peptide)
peptide: RPRLSXKAPXPF
HELM: PEPTIDE1{[ac].R.P.R.[dL].S.[Aib].K.[dA].P.[Nle].P.[O=C(O)[C@H](Cc1ccc(Br)cc1)N[*:1]]}$$$$V2.0
SMILES: CCCC[C@H](NC(=O)[C@@H]1CCCN1C(=O)[C@@H](C)NC(=O)[C@H](CCCCN)NC(=O)C(C)(C)NC(=O)[C@H](CO)NC(=O)[C@@H](CC(C)C)NC(=O)[C@H](CCCNC(=N)N)NC(=O)[C@@H]1CCCN1C(=O)[C@H](CCCNC(=N)N)NC(C)=O)C(=O)N1CCC[C@H]1C(=O)N[C@@H](Cc1ccc(Br)cc1)C(=O)O
ERK1/2 phosphorylation EC50 [14]: 71.3 nM | ERK1/2 phosphorylation EC50, fold against K17F [14]: 18 fold | Ki [15]: 2.11 nM | Inhibition of FSK-induced cAMP production IC50 [16]: 2.22 nM | Internalization EC50 [16]: 2.11 nM | ERK1/2 phosphorylation EC50 [3]: 72.1 nM | Internalization EC50 [3]: 2.1 nM | cAMP production IC50 [3]: 2.22 nM | inhibition of forskolin-induced cAMP production IC50 [3]: 4.4 nM

Molecule: Palmitoyl-KFRRQRPRLSHKGPMPF [JFM V-0196A]
Ki [2]: 0.76 nM | IC50 cAMP inhibition [3]: 3.9 nM | cAMP production IC50 [3]: 3.9 nM

Molecule: {Propanoyl(3-C8F17)}-KFRRQRPRLSHKGPMPF [JFM V-0196B]
Ki [15]: 0.08 nM | Ki [2]: 0.21 nM | ERK1/2 phosphorylation EC50 [16]: 0.89 nM | Inhibition of FSK-induced cAMP production IC50 [16]: 3.13 nM | Internalization EC50 [16]: 0.41 nM | IC50 cAMP inhibition [3]: 3.1 nM | cAMP production IC50 [3]: 3.1 nM

B3: P92 (peptide)
peptide: KFRRQRPRLSXKAPXPF
HELM: PEPTIDE1{[ac].K.F.[dR].R.[dQ].R.P.R.[dL].S.[Aib].K.[dA].P.[Nle].P.[O=C(O)[C@H](Cc1ccc(Br)cc1)N[*:1]]}$$$$V2.0
SMILES: CCCC[C@H](NC(=O)[C@@H]1CCCN1C(=O)[C@@H](C)NC(=O)[C@H](CCCCN)NC(=O)C(C)(C)NC(=O)[C@H](CO)NC(=O)[C@@H](CC(C)C)NC(=O)[C@H](CCCNC(=N)N)NC(=O)[C@@H]1CCCN1C(=O)[C@H](CCCNC(=N)N)NC(=O)[C@@H](CCC(N)=O)NC(=O)[C@H](CCCNC(=N)N)NC(=O)[C@@H](CCCNC(=N)N)NC(=O)[C@H](Cc1ccccc1)NC(=O)[C@H](CCCCN)NC(C)=O)C(=O)N1CCC[C@H]1C(=O)N[C@@H](Cc1ccc(Br)cc1)C(=O)O
Ki [15]: 0.09 nM | IC50 [2]: 0.21 nM | Ki [2]: 0.2 nM | Inhibition of FSK-induced cAMP production IC50 [16]: 0.56 nM | cAMP production IC50 [4]: 0.62 nM | selectivity factor towards the AT1 receptor with respect to the apelin receptor (AT1 receptor): 100 fold | ERK1/2 phosphorylation EC50 [3]: 3.42 nM | Internalization EC50 [3]: 0.38 nM | cAMP production IC50 [3]: 0.56 nM | inhibition of forskolin-induced cAMP production IC50 [3]: 0.2 nM

Molecule: Ac-KFRRQRPR[dL]S[Aib]K[dA]P[Nle]P[Phe(4-Br)] (not fully specified (residue 3)) [P96]
IC50 [2]: 0.11 nM | cAMP production IC50 [4]: 0.45 nM

Next, values leading:

inhibition of forskolin-induced cAMP production IC50 [1]: 0.1 nM
Molecule: pE13(4Br-Phe^13) (peptide)

inhibition of forskolin-induced cAMP production IC50 [1]: 1 nM
Molecule: pE13F (pyroglutamyl form of apelin 13) (peptide)

Ki [2]: 0.16 nM | IC50 cAMP inhibition [3]: 1 nM
Molecule: K(heptadecafluoroundecanoyl)FRRQRPRLSHKGPMPF [JFM V-0220B]

inhibition of forskolin-induced cAMP production IC50 [3]: 1 nM
Molecule: XRPRLSHKGPXPF (pGlu at 1; Nle (norleucine) at 11) [pE13F(Nle^11)]

Ki [5]: 2.6 nM | inhibition of forskolin-induced cAMP production IC50 [3]: 1.2 nM
Molecule: XRPRLSXKGPMPF (pGlu at 1; Aib (α-aminoisobutyric acid) at 7) [pE13F(Aib^7)]

Ki [2]: 1.33 nM | IC50 cAMP inhibition [3]: 1.4 nM
Molecule: KKFRRQRPRLSHKGPMPF (acyl group RC(O)- on the εNH2 of the added N-terminal linker L-lysine) [JFM V-0210/2]

Ki [2]: 0.18 nM | IC50 cAMP inhibition [3]: 3.8 nM
B2: JFM V-0210/1 (peptide)
peptide: KKFRRQRPRLSHKGPMPF
modifications: fluorocarbon (perfluoroalkyl) group on the εNH2 of the added N-terminal linker L-lysine

Ki [13]: 0.25 nM | factor of decreased affinity as compared to P92 [13]: 2 to 3 fold
Molecule: {acyl group}-KF[dR]R[dQ]RPR[dL]S[Aib]K[dA]P[Nle]P[Phe(4-Br)] (reading uncertain; also: acyl group on the NH2α of Lys 1) [LIPO-P92]

Ki [17]: 4.3 nM | inhibition of forskolin-induced cAMP production IC50 [3]: 43 nM
Molecule: XRPRLSHKAPMPF (pGlu at 1; D-Ala at 9) [pE13F(D-Ala^9)]

Ki [2]: 1.43 nM | IC50 cAMP inhibition [3]: 2 nM
Molecule: K(Palmitoyl)FRRQRPRLSHKGPMPF [JFM V-0220A]
